Laboratory results as given in patent US20110144312A1 (Kyowa Kirin, published 2011).

T1: Ac-SIFSHFREYE-NH2 (human)
T1 peptide: Ac-SIFSHFREYE-NH2

T2: Ac-TVTNTRFSVD-NH2 (human)
T2 peptide: Ac-TVTNTRFSVD-NH2

T3: Ac-GNFTFTHKKV-NH2 (human)
T3 peptide: Ac-GNFTFTHKKV-NH2

T4: Ac-YHSNGYRARVRA-NH2 (human)
T4 peptide: Ac-YHSNGYRARVRA-NH2

T5: Ac-SVASRSNKGM-NH2 (human)
T5 peptide: Ac-SVASRSNKGM-NH2

T6: human IL-10Rα on cells (human, UniProt Q13651 22-578)
T6 construct: Full-length entry with signal peptide; endogenous on PBMC and RPMI-8226 cells, transfected in EL-4 and CHO-K1 cells; also called IL-10R on RPMI-8226 cells; IL-10Rα on human PBMC, lymphocytes and monocytes
T6 sequence: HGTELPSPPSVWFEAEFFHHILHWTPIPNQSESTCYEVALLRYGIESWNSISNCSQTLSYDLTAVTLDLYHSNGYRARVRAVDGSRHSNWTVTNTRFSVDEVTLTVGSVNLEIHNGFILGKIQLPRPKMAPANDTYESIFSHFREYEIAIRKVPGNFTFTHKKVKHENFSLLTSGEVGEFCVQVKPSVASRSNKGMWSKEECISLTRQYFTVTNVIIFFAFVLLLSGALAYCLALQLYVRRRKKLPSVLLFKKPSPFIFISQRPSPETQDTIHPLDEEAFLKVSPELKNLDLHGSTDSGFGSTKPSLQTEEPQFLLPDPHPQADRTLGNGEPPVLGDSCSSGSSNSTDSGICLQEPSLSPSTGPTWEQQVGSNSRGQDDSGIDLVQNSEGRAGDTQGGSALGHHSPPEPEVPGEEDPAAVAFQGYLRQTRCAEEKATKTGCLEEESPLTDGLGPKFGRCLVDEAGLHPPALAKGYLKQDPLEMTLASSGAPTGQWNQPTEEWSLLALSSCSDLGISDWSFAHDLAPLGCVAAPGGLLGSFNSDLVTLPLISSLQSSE


Experiments:
Ac-SIFSHFREYE-NH2 = biological target: T1, Ac-SIFSHFREYE-NH2; assay: dot blot on PVDF or nitrocellulose membrane
Description: (§1) Methods to detect antibody binding to peptides derived from the human IL-10Rα sequence: Multiple methods were employed to detect binding of anti-human IL-10Rα antibodies to peptides derived from the extracellular domain of human IL-10Rα that have been reported by Reineke, et al. (Reineke, et al., Protein Sci 7:951 (1998)) to be included in the IL-10 binding site of the receptor. The following amide synthesized peptides were tested: Ac-[…]-NH2, Ac-[…]-NH2, Ac-[…]-NH2, Ac-[…]-NH2, Ac-[…]-NH2 (SEQ ID NO. 81-85). In addition, the following biotinylated peptides were tested: Biotin-[…]-NH2, Biotin-[…]-NH2 (SEQ ID NO. 86-87). The amide peptides were synthesized by A&A Labs, LLC (San Diego, Calif.) and the biotinylated peptides were synthesized by GenScript (Piscataway, N.J.) both at >95% purity and reconstituted at 20 mg/ml in DMSO. In one assay design peptides were spotted at 5 μg/spot in PBS onto PVDF membranes or nitrocellulose membranes that had been prepared according to the manufacturer's instructions. The membranes were incubated with anti-IL-10Rα antibodies using standard Western blotting methods (e.g. Towbin, et al., Proc Natl Acad Sci 76:4350 (1979)). Native human IL-10Ra:hFc and heat denatured human IL-10Ra:hFc were also spotted at 1 μg/spot on the membranes as controls. Negative controls included an irrelevant peptide and isotype controls. […] None of the antibodies bound to the spotted denatured protein or to any of the peptides derived from the human IL-10Ra extracellular domain or the irrelevant peptide.

Ac-TVTNTRFSVD-NH2 = biological target: T2, Ac-TVTNTRFSVD-NH2; assay: dot blot on PVDF or nitrocellulose membrane
Description: as §1

Ac-GNFTFTHKKV-NH2 = biological target: T3, Ac-GNFTFTHKKV-NH2; assay: dot blot on PVDF or nitrocellulose membrane
Description: as §1

Ac-YHSNGYRARVRA-NH2 = biological target: T4, Ac-YHSNGYRARVRA-NH2; assay: dot blot on PVDF or nitrocellulose membrane
Description: as §1

Ac-SVASRSNKGM-NH2 = biological target: T5, Ac-SVASRSNKGM-NH2; assay: dot blot on PVDF or nitrocellulose membrane
Description: as §1

human IL-10Rα on cells = biological target: T6, human IL-10Rα on cells; assay: flow cytometry on RPMI-8226 cells; detection anti-human IgG-PE [B]
From the text: A) Titration of anti-IL-10Rα antibodies binding to coated human IL-10Rα:hFc. Binding was detected with anti-human kappa-HRP, anti-mouse IgG-HRP, or anti-rat IgG-HRP. […] RPMI-8226 cells were labeled with anti-human IL-10Rα antibodies at various concentrations and detected with anti-human IgG-PE. The commercial rat anti-human IL-10Rα antibody 3F9 was detected with anti-rat IgG-PE. The geometric mean fluorescence intensity (geo mean) data are shown.
The cells were washed once in staining buffer: PBS+2% FBS+0.01% NaN₃+10 mM EDTA, then blocked with 20 μg/ml rabbit IgG (Jackson Immunoresearch), resuspended in serum, supernatant, purified anti-human IL-10Rα antibodies, or isotype control antibodies in a final volume of 50 μl. The cells were incubated with the antibodies on ice for 20 minutes, washed twice in staining buffer then resuspended in an anti-human IgG secondary antibody for 20 minutes. […] If the biotinylated antibody was used, antibody binding was detected by labeling with streptavidin-phycoerythrin (SA-PE) for 20 minutes. Binding of rat and mouse anti-hIL-10Rα antibodies were detected with either biotinylated or PE conjugated anti-rat or anti-mouse IgG antibodies from multiple sources (Jackson Immunoresearch; Southern Biotech Associates; and BD Pharmingen, San Diego, Calif.). […]

Binder	binding result (Ac-SIFSHFREYE-NH2)	binding result (Ac-TVTNTRFSVD-NH2)	binding result (Ac-GNFTFTHKKV-NH2)	binding result (Ac-YHSNGYRARVRA-NH2)	binding result (Ac-SVASRSNKGM-NH2)	EC50 (read off the curve) (human IL-10Rα on cells)
136C5 (antibody, V domains shown, Hybridoma antibody, human IgG1, kappa light chain; also called human anti-human IL-10Rα monoclonal antibody 136C5; hybridoma deposit PTA-9131) VH: EVQLVESGGGLVQPGGSLRLSCAASGFTFSSYSMNWVRQAPGKGLEWVSYISTGSSTIYYADSVKGRFTISRDNAKNSLYLQMNSLRDEDTAVYYCARENYYGSGSYEDYFDYWGQGTLVTVSS VL: EIVLTQSPATLSLSPGERATLSCRASQSVSSYLAWYQQKPGQAPRLLIYDASNRATGIPARFSGSGSGTDFTLTISSLEPEDFAVYYCQQRSNWPIFTFGPGTKVDIK	no binding (tested: 5 µg/spot)	no binding (tested: 5 µg/spot)	no binding (tested: 5 µg/spot)	no binding (tested: 5 µg/spot)	no binding (tested: 5 µg/spot)	~0.5 µg/mL
136C8 (antibody, V domains shown, Hybridoma antibody, human IgG2, kappa light chain; also called human anti-human IL-10Rα monoclonal antibody 136C8; hybridoma deposit PTA-9132) VH: EVQLVESGGGLVQPGGSLRLSCAASGFTFSSYSMNWVRQAPGKGLEWVSYISTRSSTIYYADSVKGRFTISRDNAKNSLYLQMNSLRDEDTAVYYCARENYYGSGSYEDYFDYWGQGTLVTVSS VL: EIVLTQSPATLSLSPGERATLSCRASQSVSSYLAWYQQKPGQAPRLLIYDASNRATGIPARFSGSGSGTDFTLTISSLEPEDFAVYYCQQRSNWPIFTFGPGTKVDIK	no binding (tested: 5 µg/spot)	no binding (tested: 5 µg/spot)	no binding (tested: 5 µg/spot)	no binding (tested: 5 µg/spot)	no binding (tested: 5 µg/spot)	~0.5 µg/mL
